Experimental findings from PMC4955526 (2017) are described below.

The chains are these.
B1: BMP-4 (protein)
chain: SPKHHSQRARKKNKNCRRHSLYVDFSDVGWNDWIVAPPGYQAFYCHGDCPFPLADHLNSTNHAIVQTLVNSVNSSIPKACCVPTELSAISMLYLDEYDKVVLKNYQEMVVEGCGCR

Read-outs that look alike come from different tables or passages of the source.

The target in assay [1] is T1, ActRIIA-Fc ECD (Homo sapiens, UniProt P27037). Description: SPR.
Assay [2] concerns the target T2, Cerberus-Fc (Homo sapiens, UniProt O95813).
T2 chain: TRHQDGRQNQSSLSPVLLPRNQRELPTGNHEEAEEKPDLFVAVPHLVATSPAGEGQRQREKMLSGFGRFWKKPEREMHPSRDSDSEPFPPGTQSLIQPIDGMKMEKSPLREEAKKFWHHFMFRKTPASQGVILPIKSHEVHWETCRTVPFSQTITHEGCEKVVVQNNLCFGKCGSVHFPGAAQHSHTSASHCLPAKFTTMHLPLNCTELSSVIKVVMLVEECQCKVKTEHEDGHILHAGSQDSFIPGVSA
Description: SPR.

The next assay has as its target T3, ALK3-Fc ECD (Homo sapiens, UniProt P36894).
T3 chain: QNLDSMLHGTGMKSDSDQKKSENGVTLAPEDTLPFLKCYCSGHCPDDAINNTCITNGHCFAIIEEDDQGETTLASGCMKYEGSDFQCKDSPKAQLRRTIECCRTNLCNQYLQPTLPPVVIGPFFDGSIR
Description: SPR.

The target in assay [3] is T1, ActRIIA-Fc ECD. Put plainly: SPR. The source holds these as a separate data set.
Assay [4] deals with T2, Cerberus-Fc. Put plainly: SPR.
Another assay deals with T4, BMPRII-Fc ECD (Homo sapiens, UniProt Q13873).
T4 chain: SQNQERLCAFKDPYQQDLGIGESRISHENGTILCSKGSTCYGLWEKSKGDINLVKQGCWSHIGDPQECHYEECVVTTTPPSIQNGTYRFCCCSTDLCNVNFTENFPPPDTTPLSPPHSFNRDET
Description: SPR.

For assay [5], the target named is B1. Description: SPR competition vs BMPRII-Fc.
For assay [6], the target named is B1. Description: SPR competition vs BMPRII-Fc.
Assay [7] deals with B1. Description: SPR competition vs ALK3-Fc.
The target in assay [8] is B1. Put plainly: SPR competition vs ActRIIA-Fc.
The target in assay [9] is B1. Description: SPR competition vs Cerberus-Fc.
The target in assay [10] is B1. Put plainly: SPR competition vs ALK3-Fc.
The target in assay [11] is B1. Put plainly: SPR competition vs Cerberus-Fc.
For assay [12], the target named is B1. Description: SPR competition vs ActRIIA-Fc.
In assay [13] the target is B1. Description: SPR competition vs BMPRII-Fc.
Assay [14] addresses B1. Put plainly: SPR competition vs ActRIIA-Fc.
Assay [15] concerns the target B1. Description: SPR competition vs ALK3-Fc.
The target of assay [16] is B1. Put plainly: SPR competition vs Cerberus-Fc.
Assay [17] has as its target B1. Put plainly: SPR competition vs ActRIIA-Fc.
The target in assay [18] is B1. Description: SPR competition vs Cerberus-Fc.
Assay [19] concerns the target B1. Put plainly: SPR competition vs ActRIIA-Fc.
For assay [20], the target named is B1. Put plainly: SPR competition vs BMPRII-Fc.
Assay [21] deals with B1. Put plainly: SPR competition vs ALK3-Fc.

T1 sequence (P27037 20-135): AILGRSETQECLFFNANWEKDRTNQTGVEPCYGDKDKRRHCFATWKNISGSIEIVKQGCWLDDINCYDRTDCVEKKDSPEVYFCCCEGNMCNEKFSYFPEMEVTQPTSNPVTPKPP

For the molecule B1, the Kd with ActRIIA-Fc ECD [1] is 2.85 nM; with Cerberus-Fc [2], 2.73 nM; with ALK3-Fc ECD, 0.193 nM; with ActRIIA-Fc ECD [3], 3.26 nM; in the assay with Cerberus-Fc [4], 2.24 nM; with BMPRII-Fc ECD, 8.13 nM.

B2: Cerberus (protein)
chain: TRHQDGRQNQSSLSPVLLPRNQRELPTGNHEEAEEKPDLFVAVPHLVATSPAGEGQRQREKMLSGFGRFWKKPEREMHPSRDSDSEPFPPGTQSLIQPIDGMKMEKSPLREEAKKFWHHFMFRKTPASQGVILPIKSHEVHWETCRTVPFSQTITHEGCEKVVVQNNLCFGKCGSVHFPGAAQHSHTSASHCLPAKFTTMHLPLNCTELSSVIKVVMLVEECQCKVKTEHEDGHILHAGSQDSFIPGVSA
B2: the IC50 with BMP-4 [5] was determined as 138 nM; with BMP-4 [6], 132 nM; with BMP-4 [7], 303 nM; in the assay with BMP-4 [8], 266 nM; in the assay with BMP-4 [9], 99.7 nM; with BMP-4 [10], 289 nM. Also, the IC50 with BMP-4 [11] was 56.7 nM; with BMP-4 [12], 305 nM; with BMP-4 [13] it was 153 nM; with BMP-4 [14], 58 nM; with BMP-4 [15], 245 nM; in the assay with BMP-4 [16] it was 46.6 nM. The IC50 came to 56 nM in the assay with BMP-4 [17]; 57.6 nM in the assay with BMP-4 [18]; 239 nM in the assay with BMP-4 [19]; 166 nM with BMP-4 [20]; 134 nM with BMP-4 [21].
